We go through four molecules from patent US20110318347A1.

Assay [1] addresses human CXCR4 (human). Nature of the assay: periplasmic fraction (1:10), displacement of [125I]-CXCL12, HEK293T-CXCR4 membranes; - = 0-29%, + = 30-69%, ++ = 70-100%; screening of clones (Table B-2): 30-69% displacement of [125I]-CXCL12, HEK293T-CXCR4 membranes. Background: Displacement assays read how much labelled ligand stays bound in the presence of the test substance.
In assay [2] the target is human CXCR4 (human). The experiment in a line: competition vs [125I]-238D2 (3 nM), membranes of HEK293T cells expressing CXCR4; Table B-3 competition vs [125I]-238D2, at 0.5 µM: no displacement.
Assay [3] deals with human CXCR4 (human). Nature of the assay: competition vs [125I]-238D2 (3 nM), membranes of HEK293T cells expressing CXCR4; Table B-3 competition vs [125I]-238D2, up to 0.5 µM; bound only.
Assay [4] concerns the target human CXCR4 (human). Nature of the assay: competition vs [125I]-238D4 (3 nM), membranes of HEK293T cells expressing CXCR4; Table B-3 competition vs [125I]-238D4, up to 0.5 µM; bound only.
The target of assay [5] is human CXCR4 (human). Nature of the assay: competition vs [125I]-CXCL12 (40 pM), membranes of HEK293T cells expressing CXCR4; Table B-3 competition vs [125I]-CXCL12, up to 0.5 µM; bound only.
In assay [6] the target is human CXCR4 (human). Nature of the assay: competition vs [125I]-238D4 (3 nM), membranes of HEK293T cells expressing CXCR4; Table B-3 competition vs [125I]-238D4, at 0.5 µM: no displacement.
Assay [7] concerns the target human CXCR4 (human). The experiment in a line: competition vs [125I]-CXCL12, membranes of HEK293T cells expressing CXCR4.
Assay [8] has as its target human CXCR4 (human). Nature of the assay: competition vs [125I]-CXCL12; potency relative to monovalent 238D2.

B1: Nanobody 237G7 (VHH, from a related filing, part only)
VHH: EVQLVESGGGLVQPGGSLRLSCAASSFIGNYHAIVWLRQAPGKELEGVSCITSRDSITYYASFVKGRFTISRDDAKNTVYLQMNNLKPEDTAVYYCAVBTSMTCPTLIVRFNYRGQGTQVTVSS
Turning to B1, the percent inhibition of specific [125I]-CXCL12 binding with human CXCR4 (human) [1] lay within 30 to 69%. Further, the Displacem. (%) with human CXCR4 (human) [2] and with human CXCR4 (human) [6] was 0% each time. The pKi with human CXCR4 (human) [3], in the assay with human CXCR4 (human) [4] and in the assay with human CXCR4 (human) [5] was below 6.3 throughout.

B2: Nanobody 237D1 (VHH)
VHH: EVQLVESGGGLAQPGGPLRLTCEASGVIYSVNDMGWYRQAPGKQRELVAVITSGGGTNYVDSVKGRFTISGDNRKKTVYLQMNSLKPEDTAVYYCSIYYSSGISTLRSWGQGTQVTVSS
With B2, in the assay with human CXCR4 (human) [1], the percent inhibition of specific [125I]-CXCL12 binding fell in the range of 30 to 69%. For the same molecule, the Displacem. (%) in the assay with human CXCR4 (human) [2] and in the assay with human CXCR4 (human) [6] was 0% throughout. Further, the pKi with human CXCR4 (human) [3], in the assay with human CXCR4 (human) [4] and with human CXCR4 (human) [5] was below 6.3 each time.

B3: Nanobody 237A6 (VHH)
VHH: EVQLVESGGGLVQAGGSLRLSCAASGSIFSLNAMGWYRQAPGKQRELVAGITSSTSTYYADSVKGRFTISRDNTKNTVYLQMNSLKPEDTAVYYCNVDCPDYYSDYECPLEDRGQGTQVTVSS
Consider B3, for which the percent inhibition of specific [125I]-CXCL12 binding with human CXCR4 (human) [1] was 30 to 69%. The Displacem. (%) in the assay with human CXCR4 (human) [2] and with human CXCR4 (human) [6] was 0% throughout. The negative logarithm of the Ki (pKi) with human CXCR4 (human) [3], in the assay with human CXCR4 (human) [4] and in the assay with human CXCR4 (human) [5] was below 6.3 throughout.

B4: 238D2-10GS-238D2 (VHH)
chain: EVQLVESGGGLVQTGGSLRLSCAASGFTFSSYAMSWVRQAPGKGLEWVSGIKSSGDSTRYAGSVKGRFTISRDNAKNMLYLQMYSLKPEDTAVYYCAKSRVSRTGLYTYDNRGQGTQVTVSSGGGGSGGGGSEVQLVESGGGLVQTGGSLRLSCAASGFTFSSYAMSWVRQAPGKGLEWVSGIKSSGDSTRYAGSVKGRFTISRDNAKNMLYLQMYSLKPEDTAVYYCAKSRVSRTGLYTYDNRGQGTQVTVSS
In the assay with human CXCR4 (human) [7], B4 registered a Displacem. (%) of 95% and a negative logarithm of the Ki (pKi) of 9.16. Further, in the assay with human CXCR4 (human) [8], the Rel. potency came out at 14 fold.

As usually defined, the pKi is the Ki on a negative log10 scale, so that one unit is a factor of ten. Lower therefore signals a large Ki.
